Test results: patent US7998688B2, “Inhibition of EMT induction in tumor cells by anti-cancer agents” (OSI Pharmaceuticals, LLC, priority 2008, dated 2011)
Read-outs that look alike come from different tables or passages of the source.

Assays:
[1] = phase III, monotherapy, patients with advanced, treatment-refractory NSCLC; cited from earlier work
[2] = phase III, first-line, in combination with gemcitabine, pancreatic cancer; cited from earlier work
H358 cells = assay: TaqMan quantitative RT-PCR of ZEB1 and Snail mRNA in TGFβ3-treated H358 cells; format: cell-based, human; conditions: H358 cells without PAK knockdown, 72 h post-TGFβ3, TaqMan (FIG. 4)
Procedure: siRNA knockdown and TGFβ3 treatment: For PAK1 and PAK2 siRNA knockdown in H358 cells, cells were seeded at a density of 5×10^4 cells/well in 6-well dishes. Next day, the cells were transfected using Lipofectamine 2000 (Invitrogen, 11668-019) with 62.5 nM PAK1 (Invitrogen; validated stealth siRNAduplex2, 12936-54) 62.5 nM PAK2 (Invitrogen; validated stealth siRNA duplex 1, 12936-55), 62.5 nM PAK1 & 62.5 nM PAK2 siRNA, or 62.5 nM negative control (Invitrogen, 12935-300) according to the manufacturer's instructions. Transfection reagent was replaced 4 hours post transfection with fresh media. The cells were re-transfected as above 48 hrs after initial transfection. 4 hours post-transfection, the transfection reagent was replaced with fresh media plus or minus 10 nM TGFβ3.
RNA isolation and TaqMan analysis: For TaqMan analysis, total RNA was isolated 72 hours after TGFβ3 treatment of H358 cells (5 and 3 days after first and second siRNA transfections). SuperArray's (SuperArray Bioscience Corp. Frederick, Md. 21704, USA) Total RNA Isolation Kit (GA-013) was used. Subsequently first strand cDNAs were made using RT PCR Array First Strand Kit (SuperArray; C-02). Quantitative-RT-PCR analyses were performed using Taqman Gene Expression Assays (Applied Biosystems, Foster City, Calif.) for PAK1, PAK2, Zeb1, and Snail.

H358 NSCLC cells = assay: TGFβ3 induction of EMT in H358 NSCLC cells (western blot); format: cell-based, human; conditions: TGFβ3 1 nM, 7 days (FIG. 1)
Procedure: FIG. 1: TGFβ3 induces EMT in H358 NSCLC cells. H358 cells were treated with TGFβ3 (1 nM, 7 days) in the presence or absence of the TGFβ receptor kinase inhibitor SB43 1542. Protein extracts were analyzed by western blot using the indicated antibodies.
Western blot analysis: For western blot analysis in H358 cells, cells were harvested 72 hrs after the addition of TGFβ3 addition (5 and 3 days after first and second siRNA transfections). For western blot analysis in HCT116/tet-on/Snail-Flag cells, cells were harvested 24 hours after Dox addition. […] Cell lysates were cleared of insoluble material by centrifugation at 15,000×g for 5 minutes at 4° C. Protein concentrations were measured in the resultant supernatant using the BCA protein analysis kit ([…].; 23225). 15 ug total lysate was used for SDS-PAGE followed by immunoblotting with the appropriate antibodies. The following antibodies were used: E-cadherin (Cell Signaling, Beverly, Mass.; 3195), vimentin (BD Biosciences, San Jose, Calif.; 550513), ErbB3 (Santa Cruz Biotechnology, Santa Cruz, Calif.; sc285), PAK1 (Cell Signaling, 2062), PAK2 (Cell Signaling, 2068), Flag (Sigma, F3165), ZEB1 (Santa Cruz, sc25388), N-Cadherin (Santa Cruz, sc7939), Fibronection (BD, 610078), β-action (Sigma, A1978).

C#Cc1cccc(Nc2ncnc3cc(OCCOC)c(OCCOC)cc23)c1 [erlotinib, [6,7-bis(2-methoxyethoxy)-4-quinazolin-4-yl]-(3-ethynylphenyl) amine]
disease progression [1]: delayed disease progression | survival [1]: significantly prolonged survival | worsening of lung cancer-related symptoms [1]: delayed worsening of lung cancer-related symptoms | survival [2]: improves survival

B1: TGFβ3: Human recombinant mature TGF-beta3 prepared and purified at OSI Pharmaceuticals; EMT inducer (protein, UniProt P10600 301-412, looked up)
Transforming growth factor …: ALDTNYCFRNLEENCCVRPLYIDFRQDLGWKWVHEPKGYYANFCSGPCPYLRSADTTHSTVLGLYNTLNPEASASPCCVPQDLEPLTILYYVGRTPKVEQLSNMVVKSCKCS
modifications: Transforming growth factor beta-3
notes: Human recombinant mature TGF-beta3 prepared and purified at OSI Pharmaceuticals; EMT inducer
Snail mRNA induction by TGFβ3 (H358 cells): ~2.8 fold | ZEB1 mRNA induction by TGFβ3 (H358 cells): 6 fold | expression of epithelial markers (E-cadherin and ErbB3) (H358 NSCLC cells): downregulating the expression of epithelial markers (E-cadherin and ErbB3) | expression of mesenchymal markers (vimentin, N-cadherin, and fibronectin) (H358 NSCLC cells): upregulating that of mesenchymal markers (vimentin, N-cadherin, and fibronectin) | protein levels of the EMT driver ZEB1 (H358 NSCLC cells): increase in the protein levels of the EMT driver ZEB1
